Results from the DeepSol protein solubility set.

Experiment: soluble on expression in E. coli; label from the status in PepcDB or PDB records

Row | Sequence | soluble on expression in E. coli
1 | MTKIAFVFPGQGAQKVGMGQDVAAEYPEAKKIYDDADERLGFSITEIITEGPIELLTKSENAQPALVSTSVAILRALETYGVKADYVAGHSLGEYSALVAGGFLEASDAIYLVRKRGELMEAAVPNGAGAMAAVLGVDRETLKTITEEVTKEGDAVQLANLNCPGQIVISGTTAGVEKAGEKAKESGAKRVLPLAVSGPFHSSLMEPAALAFRDVLAEVKISDGQIPVVNNVDAKETTDKSEISDKLIKQIYSPVLWEDIVEELIKNGVDTFVEIGSGKVLAGLIKKINRDVTVLSAGDAESVKSVAATLKGE | not soluble
2 | GSFTSSGCQEANYGALLRELCLTQFQVDMEAVGETLWCDWGRTIRSYRELADCTWHMAEKLGCFWPNAEVDRFFLAVHGRYFRSCPISGRAVR | soluble
3 | MGSDKIHHHHHHMTKIKHIFSDLDGTLLDDQGKISKKTQEVIENSNLPFSLVSARAPQAMESLINQLNLKSSQVAFNGGLIFAKNEVIKANPMVHASAQELIKTIKKDYPEINLSLYSLSDWYVEKIDKDIEQEMQFTPQVPKLVDLETLITERPRLEIFKILLITPNESKLEEIKKHLEKLNFPDIIIQKTWETYLEITHLEAQKAKAVQFIAQREQLEQSELAAFGDNENDLSMLKAVGLPIVMANASDDLKKIGKVITKSNTEDGVAYGIQKYITDSLF | not soluble
4 | DGFKIVQFSDAHLSDYFTLEDLKTVILTINESKPDLIVFTGDIIDNPDTYQHHQAVIPLLRKLNAPFGKLCIYGNHDHGGYGTAVYKSLMTAGGFTVYRNGYQTLSLADGSKIEIASLDDFNAGKPRFMQGTLSRLSDRLFSILLVHEPDAALKTTDYPVNLQLSGHTHGGQIQLPFYGPIITPPYGKVYTEGMYQTGSTHIYVNRG | not soluble
5 | MGSDKIHHHHHHMDDFSEILARKRQGSLKVYLGYAAGVGKTYAMLQEAHRLAREGLDVVIGYVEPHDRADTLALVEGLEQVAPRKVAIAGSDFTEMDVPGIIARRPQVVLVDELAHTNAAGSENGKRYQDVLKVLEAGINVITTLNVQHLESVAERVESVAGVRVQERLPDAILRRADQVVNVDLTKEDLRERLRQGRIYSPEQAERALGGFFSYRNLSFLRELCLREASGDQVRKIEEQEHFPRHSAGDVIEGVMVALSSSPTDAETLIRRGVRIAHQMGSPCYVVYVQRPSENPTRIDSGLQRVLQGNLRLATQLGAEVVQLAGGDIAETLANFASERNVRHAVFGKSRLSPLLERVRGSFILEFLHDAVGVDVHIVNTTPRQPGQERA | not soluble
6 | MDTDNNLTFVDFYYRWLEITKLDIINDTSYKRYITAIKAFKDCFGNKLISDIDSLSYQKFLKDYGRGHFLNNGQLRPRTSNTVSKMNNCLKQAFESAVEQGYIKKNLEHHHHHH | not soluble
7 | MTDYLNVGKIVNTQGIKGEVRVISKTDFPEERYQKGAMLLLFQEKKAPIELVVKSHRKHKNFDILSFEGHPNINDVEKYRDGILKVAKDNLAELAEDEFYYHQIIGATVYDETGSELGKIKEILSPGANDVWVVQRPKKKDLLLPYIEGVVTKVDVENQRIDVDIPEGLIDDENLEHHHHHH | soluble
8 | MTTEHETHAAELGAPEPECARCGKVLPLCICDTVEPIASRTQLLILQHPQEQDRALGTARLTAQHFKNAEVRIGLSWPSLSKALGRTVHDPSRWAVLYLGSARAAELAEGREILAVDAKGQPEPHQDMILDEIEGVVLLDGTWSQAKALWWRNAWMLKCQRVILDPSAPSRYGRLRKEPRRDGLSTLEAAAMLLSRLEHRPEIETKLLEAFDRMLARFKQVQAERPDLAPKPKKRDWRRKKRGLEHHHHHH | not soluble
9 | MIDFSNFYQLIAKSPLSHWLETLPAQVAAWQRDALHGKFREWERAVEFLPELTPWRLDLLHSVTAESETPLSEGHQRRIENLLKNLMPWRKGPYSLYGINIDTEWRSDWKWERVLPHLSDLTGRTILDVGCGSGYHMWRMIGAGAHLAVGIDPTQLFLCQFEAVRKLLGNDQRAHLLPLGIEQLPALEAFDTVFSMGVLYHRRSPLDHLWQLKDQLAPGGELVLETLVVEGDENTVLVPGDRYAQMRNVYFIPSAAALKMWLEKCGFIDVRIVDACVTSTEEQRRTEWMTTESLADFLDPQDQRKTVEGYPAPLRAVIIATKPETQQSLAKKAR | not soluble
10 | MSLAVNNIIKRIRNIMRQDAGINGDAQRIEQMTWMIFLKVYDTQEETWEYKASRESKTYQSIIPKDLRWRNWAVDEKDGEALTGEALLSFVNEKLFPALKNLPVDANTPRAKSIVQETFADLNQYMKNGTLLRQVVNIVNEIEFDDADDRHTFGDIYEGILKDLQSAGNAGEFYTPRALTDFIVMMLDPKLGETFGDFTSGTGGFLTSALNYMGKSVRSAEDGEKLQNAVVGQEWKPLPYLLSITNLLLHDIEAPNIANCDSLGTNVTDFKETDKVDVIGMNPPYGGSTEDSVKNNFPLRYRSSETADLFIALIMYRLKAGGRCGVIIPDGFLFGTDGAKLALKENLLRKFNLHTIIRLPGSIFSPYTSIATNILFFNNEEAEGCEEGFKTKETWFYRLDMPEGYKHFSKNKPMKVEHTLPIQEWWNDRKEIVSSETGEKSRVFTAQQLLDLNCNFDQCKFPKEEEEILPPAEGHHHHHH | soluble
11 | MRILNQDNNIAVRNVLLMLTMEEAAELKDDLERLLSKKALNDHSHINDLEYEHELTISLYDENNIEEFDERIKKLIIQDE | not soluble
12 | MAHHHHHHMGTLKAIIAPSVLASNISKLAEETQRMESLGAEWIHLDVMDMHFVPNLSFGPPVINNLKKYTKSIFFDVHLMVEYPEKYVPLLKTSNQLTFHFEALNEDTERCIQLAKEIRDNNLWCGISIKPKTDVQKLVPILDTNLINTVLVMTVEPGFGGQSFMHDMMGKVSFLRKKYKNLNIQVDGGLNIETTEISASHGANIIVAGTSIFNAEDPKYVIDTMRVSVQKYLNN | soluble
13 | MAHHHHHHMPRVQLFIDNGGYSVKALYLPASADTSNRSAATHASALTSSSTHGEAAATAATVAPAPKVLVVPNCVGAAVYAGTGIMGDQLDHLPHYHGLMVRRPVDRGFVVDGGLQARVWEHVLQHFSIESEEEVDVWLVVPFAAPKAVAQLLWLLCTRSFRFGSVTVVSSSFMSLIAYKFARGASAPSSAARKRPRSTVDTDAQESPGCSGSSATGGGMAIMVDVGFSATTVVPYVNYIPVYSSVVRLDVGGKVLTNRLKEYISFSQMNVIEDTWLINHVKEQCCVVARHPRRSLQRYAALWKGRTRDEVEAAAGALSTLRREDGGSGDGQASRSQRPGAPVAGVLTSPDVPIRYYLPTIPALLPLGVLEAELPSRLPKTSGVDAAALQHLLLCQERFLIPELLFTPADVGINQQGVAQAITEGIFQRGLLQHLTKLLRPLLLHNVCVYGGTASQPNFRDRLEAEVAAVAPQSPDCDADLDLKDSKRSSSSSRHGATEACADRTTCLSATPALPEFLLKAGGASTDLSLQPLLGAWCLLSATVDSGSNGGASQRELLRLRALVHERSGIELQHPPAGRVTVETFQHALERML | not soluble
14 | RREMTSYSDIDLILLHPEGSIPSGLEHFWYPIWDAKIRLDYTVRTPKECADMISAEPTAALALLDISHCSGDPQLTATTRCVVLEQWRRELKKNFNDVTDTAIARWNRSGSVVDMTHPDLKHGRGGLRDIELIRALALGNLCDKRPLGEERQLLLNIRTMLHQHAGRARDVLDPEFAVDVALDLGCEDRYDLSRSLAKAARTIDDATNAALSTARNLLPRRSSVRKAVRRPVDIDVVEVDGTLALSRTPNLEDPSLVLRVAAASARTGMTISESAWKQLETVPSMPPT | not soluble
15 | KATRDSSTLNVDTYVNWIKRVFRPQRLRLLERKELVVEEADYEYALGEIANVRSDAQQMLGSRIMSRPLPFIWLFGGDLSSQKELSVRVDTMVEYLHNTTDNLIFAKLMDVPPLPTTLSHWLPKDKRS | not soluble
16 | MAEPKKLANGKWQLRFKYKDSITNEWKNKMITRSTKKACRDAETEFKSKIMRGENTEAIKLLDFYDIWVDTFKKNKVSAGRMQKIALTRKNLHDFFGDKQLLKGVTKVKYQQWINWLAKPGNINEKGLAVETVSNRHNIVKSMFLEALDMQYIHSNPTRNIKLTGQVPEKKSNKTISIDDLTKFKEALLSRENTTSKYFILVQLYTGARYQEVAALTWDSIDESNEVIKIKNAYKYDAGQYRIGPTKSEAGVRNIDVPSSLFYYLKKYEMEQKKKILRGDLRNPQNFAFVSKKNSWPISNSSVNKYIKETCELANIERISSHSFRHARSDLLILAEADPIYIKTQLGHKEIIQSYEYASATEANRKKNKEKYENKYKDIL | not soluble
